Laboratory results as given in US20260139013A1 (VIB VZW, published 2026).

Target: the molecule itself
Experiment: cryo-EM structure of the self-assembled fiber (subunit to subunit)

B1: Ena1B-HI-Rubredoxin (other)
chain: MGNCSTNLSCCANGQKTIVQDKVCIDWTAAATAAIIYADNISQDIYASGYLKVDTGTGPVTIVFYSGGVTGTAVETIVVATGSSASFTVRRFDTVTILGGGKYVCTVCGYEYDPAEGDPDNGVKPGTSFDDLPADWVCPVCGAPKSEFEAAGAAETGEFCMTIRYTLS
notes: It was made in E. coli and studied as a self-assembled helical fiber of many identical subunits; The rubredoxin centre carried mostly zinc and some iron; also called Ena-HI-Rubredoxin; Ena1B-Rubredoxin-HI
B1: binds.
